{"source": "patent US8530168B2", "about": "“Fusion protein comprising a Caspase domain and a nuclear hormone receptor binding domain and methods and uses thereof” (Helmholtz Zentrum Munich Deutsches Forschungszentrum fuer …, priority 2007, dated 2013)", "molecules": {"B1": {"name": "Casp9full-ER(T2): full length murine Caspase-9 fused to ER(T2) ligand binding domain, SEQ ID NO: 29 (protein)", "chain": "MDEADRQLLRRCRVRLVSELQVAELWDALLSRELFTRDMIEDIQQAGSGSRRDQARQLVTDLETRGRQALPLFISCLEDTGQGTLASLLQSGRQAAKQDPEAVKPLDHLVPVVLGPMGLTAKEQRVVKLDPSQPAVGNLTPVVLGPEELWPARLKPEVLRPETPRPVDIGSGGAHDVCVPGKIRGHADMAYTLDSDPCGHCLIINNVNFCPSSGLGTRTGSNLDRDKLEHRFRWLRFMVEVKNDLTAKKMVTALMEMAHRNHRALDCFVVVILSHGCQASHLQFPGAVYGTDGCSVSIEKIVNIFNGSGCPSLGGKPKLFFIQACGGEQKDHGFEVACTSSQGRTLDSDSEPDAVPYQEGPRPLDQLDAVSSLPTPSDILVSYSTFPGFVSWRDKKSGSWYIETLDGILEQWARSEDLQSLLLRVANAVSAKGTYKQIPGCFNFLRKKLFFKTSVEPSAGDMRAANLWPSPLMIKRSKKNSLALSLTADQMVSALLDAEPPILYSEYDPTRPFSEASMMGLLTNLADRELVHMINWAKRVPGFVDLTLHDQVHLLECAWLEILMIGLVWRSMEHPVKLLFAPNLLLDRNQGKCVEGMVEIFDMLLATSSRFRMMNLQGEEFVCLKSIILLNSGVYTFLSSTLKSLEEKDHIHRVLDKITDTLIHLMAKAGLTLQQQHQRLAQLLLILSHIRHMSNKGMEHLYSMKCKNVVPLYDLLLEAADAHRLHAPTSRGGASVEETDQSHLATAGSTSSHSLQKYYITGEAEGFPATA", "modifications": "fusion protein Casp9full-ER(T2)"}}, "format_in_all_cases": "cell-based, mouse", "key": {"MEF5/N9 cells [1]": {"system": "MEF5/N9 cells", "assay": "Transient cotransfection of ER(T2) fusion expression vectors with β-galactosidase reporter; β-galactosidase activity in lysates", "settings": "10^−8 M 4-OH-tamoxifen, 48 h; relative to Cre-ER(T2) without 4-OH-tamoxifen", "in_short": "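MEF5/N9 mouse embryonic fibroblasts transiently cotransfected with pCMV-β-gal reporter (100 ng) plus ER(T2) fusion vector (100 ng; 50 ng for Casp9 constructs), then induced with 10^−8 M 4-OH-tamoxifen for 48 h. Lysate β-galactosidase read by chemiluminescence (RLU), mean of two wells, expressed relative to uninduced pCAG-Cre-ER(T2) control set at 1.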"}, "MEF5/N9 cells [2]": {"system": "MEF5/N9 cells", "assay": "MTT cytotoxicity assay of stably transfected MEF5/N9 clones", "settings": "10^−8 M 4-OH-tamoxifen, 48 h", "in_short": "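Hygromycin-selected MEF5/N9 clones stably carrying ER(T2) fusion constructs, 4·10^3 cells/well, treated 48 h with or without 10^−8 M 4-OH-tamoxifen, in triplicate. Survival measured by MTT (0.5 mg/ml, 4 h, 37° C), formazan dissolved in HCl/isopropanol, absorbance at 570 nm.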"}, "MEF5/N9 cells [3]": {"system": "MEF5/N9 cells", "assay": "Transient cotransfection of ER(T2) fusion expression vectors with β-galactosidase reporter; β-galactosidase activity in lysates", "settings": "no 4-OH-tamoxifen; transient transfection 50 or 100 ng vector; relative to Cre-ER(T2) without 4-OH-tamoxifen"}, "MEF5/N9 cells [4]": {"system": "MEF5/N9 cells", "assay": "Visible phenotypic changes / viability of stably transfected MEF5/N9 clones on 4-OH-tamoxifen treatment", "settings": "10^−8 M 4-OH-tamoxifen, 24 h", "in_short": "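Hygromycin-selected MEF5/N9 clones stably expressing ER(T2) fusion proteins were plated at 1·10^5 cells/well and next day given 10^−8 M 4-hydroxy-tamoxifen. Cell death was judged from phase-contrast micrographs at 10- or 20-fold magnification taken 24 h after induction.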"}}}
{"molecule": "B1", "values": [{"measurement": "relative β-galactosidase activity in presence of 4-OH-tamoxifen compared to the negative control", "setting": "MEF5/N9 cells [1]", "value": 7, "unit": "%"}, {"measurement": "cell viability in the presence of 4-OH-tamoxifen (MTT)", "setting": "MEF5/N9 cells [2]", "value": 6, "unit": "%"}, {"measurement": "basal toxicity: relative β-galactosidase activity compared to the negative control in absence of 4-OH-tamoxifen", "setting": "MEF5/N9 cells [3]", "value": 62, "unit": "%"}, {"measurement": "4-OH-tamoxifen-dependent cell death, phenotype of stable clones", "setting": "MEF5/N9 cells [4]", "value": "died in the presence of 4-OH-tamoxifen within 24 h"}, {"measurement": "4-OH-tamoxifen-dependent cell death, phenotype of stable clones", "setting": "MEF5/N9 cells [4]; listed as Casp9fullER", "value": "substantial cell death"}]}
